Measurements from US20250074972A1, “ANTIBODIES AND METHODS FOR GENERATING THE SAME” (priority 2021, published 2025).

How the values were obtained:
[1] = test system: C. albicans WT strain SC5314; test: Candida albicans growth inhibition assay; format: cell-based; details: OD 405 nm
Procedure: The antifungal activity of Utr2 scAbs was assessed by measuring the growth of fungal cells in microtitre plates. A growth assay was carried out with C. albicans WT strain SC5314 and using caspofungin as a positive control. A starting concentration of 100 μg/ml was prepared for the test scAbs (B5, C8, D3, 1H3, 1B1 and 1D2) and caspofungin and these were double diluted in a 96 well microtitre plate in designated wells. The wells were inoculated using 50 μl 2×10^6 cells/ml diluted in RPMI-1640 medium and incubated for 24 h and 48 h at 37° C. Cell growth was determined by measuring optical density at 405 nm in a spectrophotometer.

[2] = test system: C. albicans WT and Utr2 overexpression strains; test: Immunofluorescence staining of C. albicans using Utr2 scAbs; format: cell-based, Candida albicans; details: scAb 10 μg/ml (1D2 repeated at 50 μg/ml)
Procedure: Overnight grown C. albicans WT and Utr2 overexpression strains were diluted and left to adhere on a poly-L-lysine glass slide for 1 h. To induce hyphal growth the cells were grown in DMEM medium containing 10% heat-inactivated foetal calf serum (FCS) and incubated at 37° C. for 2 h. Cells were washed three times in Dulbecco's phosphate-buffered saline (DPBS) and fixed with 4% paraformaldehyde at room temperature for 15 minutes. After washing, cells were blocked with 1.5% BSA and incubated for 1 h. Cells were washed as before and stained with Utr2 scAbs at 10 μg/ml for 1 h at room temperature. After washing, cells were stained with FITC-labelled anti-human kappa light chain antibody (1 μg/ml) and incubated at room temperature for 1 h. Cells were washed again and stained with 25 μg/ml of Calcofluor white (CFW) to illuminate chitin-containing structures. Mounting medium was added with a coverslip before images were taken using an UltraVIEW® Vox spinning disk confocal microscope (Perkin Elmer, Waltham, Mass, USA). Calcofluor white stain was viewed at lower brightness (×1) and FITC stain was viewed at higher brightness (×8). Calcofluor white stained the chitin rich cell wall as well as septa of both C. albicans strains.
The immunofluorescence staining was repeated for 1D2 scAb with higher concentration of scAb (50 μg/ml) and FITC-labelled anti-human kappa light chain antibody (5 μg/ml). […]

[3] = test system: A. fumigatus AF293/FGSC1100 hyphae; test: Whole cell binding ELISA, A. fumigatus hyphae; design: species or system Aspergillus fumigatus; details: starting concentration 100 μg/ml scAb
Procedure: C. albicans Utr2 shares certain degree of sequence similarity with S. cerevisiae Utr2, S. cerevisiae Crh1 and an Aspergillus fumigatus allergen Aspf9, with highly conserved putative glycosyl hydrolase domains (Alberti-Segui et al., 2004). The cross-reactivity of selected Utr2 scAbs to A. fumigatus was tested by performing a whole cell binding ELISA using C. albicans SC5314 and A. fumigatus AF293/FGSC1100 strains. To induce hyphal formation, wells of a MaxiSorp flat-bottom 96 well plate was coated with approximately 10^6 overnight grown cells diluted in DMEM or RPMI-1640 modified medium containing 10% heat-inactivated foetal calf serum (FCS) and incubated at 37° C. for 2-20 h. Cells were washed three times in PBS+0.05% Tween, blocked with 1.5% bovine serum albumin (BSA), and incubated at room temperature for 1 h. Cells were washed as before and a starting concentration of 100 μg/ml scAb in 1% blocking buffer was added in duplicate in doubling dilutions and incubated at room temperature for 1.5 h. After washing, cells were incubated with anti-human C kappa peroxidase antibody as described previously. Following incubation for 45 min at room temperature, wells were washed and stained with tetramethylbenzidine (TMB) and read at an absorbance of 450 nm in a VersaMax microplate reader (Molecular Devices, USA).

[4] = after 24 h, top concentration of 100 μg/ml

B1: B5: Utr2 antibody; SEQ ID NO: 12 (protein)
scFv: QVQLVESGGGVVQPGRSLRLSCAASGFTFSSYGMHWVRQAPGKGLEWVAVISYDGSNKYYADSVKGRFTISRDNSKNTLYLQMNSLKTEDTAQYYCVRVRRSGMARGLIDYWGQGTLVTVSSLEGGGGSGGGGSGGGASSYELTQDPAVSVALGQTVRITCQGDILRSYYASWYQQKPGQAPVLVIYGKNNRPSGIPDRFSGSSSGNTASLTITGAQAEDEADYYCNSRDSSGNHKVFGGGTKVTVLG
modifications: B5 Amino Acid Sequence
growth inhibition [1, 4]: 40% | growth inhibition ([1]; after 48 h incubation): No further reduction

B2: 1D2: Utr2 antibody; SEQ ID NO: 24 (protein)
scFv: QVQLVQSGAEVKKPGASVKVSCKASGYSFTNYDIYWVRQATGQGLEWVGFINPKTGKTGYAQKFQGRVTMSRDTSITTAYMELNSLTSEDTAVYYCASISGYWGQGTLVTVSSLEGGGGSGGGGSGGGASDIVMTQSPLSLPVTLGQPASISCRSSQSLVYSDGNTYLNWFQQRPGQSPRRLIYKVSNRDSGVPDRFSGSGSGTDFTLKISRVEAEDAGLYYCMQGSHWPPTFGQGTKVEIKR
modifications: 1D2 Amino Acid Sequence
immunofluorescence staining [2]: specifically stained the hyphal tips and bud surface | cross-reactivity to A. fumigatus hyphae [3]: cross-reactive

B3: D3: Utr2 antibody; SEQ ID NO: 26 (protein)
scFv: QMQLVQSGAEVKKPGESLKISCKGSGYSFTSYWIGWVRQMPGKGLEWMGIIYPGDSDTRYSPSFQGQVTISADKSISTAYLQWSSLKASDTAMYYCARLKTGDQLPDIWGQGTMVTVSSLEGGGGSGGGGSGGGASDIVMTQTPLSLSVTPGQPASISCKSSQSLLHSDGKTYLYWYLQKPGQPPQLLIYEVSNRFSGVPDRFSGSGSGTDFTLKISRVEAEDVGVYYCMQTIQLPATFGGGTKLEIRR
modifications: D3 Amino Acid Sequence
growth inhibition ([1]; after 48 h incubation): approximately 40%

B4: 1C2: Utr2 antibody; SEQ ID NO: 14 (protein)
scFv: QVQLVQSGAEVKKPGASVKVSCKASGYTFTSYAMHWVRQAPGQRLEWMGWINAGNGNTKYSQKFQGRVTITRDTSASTAYMELSSLRSEDTAVYYCARGGAAAGYYMDVWGKGTLVTVSSLEGGGGSGGGGSGGGASNFMLTQPHSVSESPGKTVTISCTRSSGSIASNYVQWYQQRPGSSPTTVIYDDNQRPSGVPDRFSASIDSSSNSASLTISGLKTEDEADYYCQSYDSSIVVFGGGTKLTVLG
modifications: 1C2 Amino Acid Sequence
cross-reactivity to A. fumigatus hyphae [3]: cross-reactive

B5: C8: Utr2 antibody; SEQ ID NO: 18 (protein)
scFv: EVQLVQSGAEVKKPGSSVKVSCKASGGTFSSYAISWVRQAPGQGLEWMGIINPSGGSTSYAQKFQGRVTMTRDTSTSTVYMELSSLRSEDTAVYYCARGTKGKDYYYMDVWGKGTLVTVSSLEGGGGSGGGGSGGGASDIQMTQSPSSLSASVGDRVTITCRASQSISTYLNWYQQKPGTAPNLLIYGASNLQSGVPSRFSGSGSGTDFTLTISSLQPEDFATYYCQQSYSTPLTFGGGTKVDIKR
modifications: C8 Amino Acid Sequence
growth inhibition [1, 4]: 40% | growth inhibition ([1]; after 48 h incubation): No further reduction

B6: 1B1: Utr2 antibody; SEQ ID NO: 10 (protein)
scFv: QGQLVQSGGGVVQPGRSLRLSCAASGFTFSSYAMHWVRQAPGKGLEWVAVISYDGSNKYYADSVKGRFTISRDNSKNTLYLQMNSLRAEDTAVYYCARIAHPRTRGGKEVEYFQHWGQGTLVTVSSLEGGGGSGGGGSGGGASDIVMTQTPLSSPVTLGQPASISCRSSQSLVYSDGNTYLNWFQQRPGQSPRRLIYKVSNRDSGVPDRFSGSGSGTDFTLKISRVEAEDVGVYYCMQGTHWPPSFGQGTKLEIKR
modifications: 1B1 Amino Acid Sequence
immunofluorescence staining [2]: minimal staining | cross-reactivity to A. fumigatus hyphae [3]: cross-reactive
